One substance from publication doi:10.1101/2021.06.28.450235 can be followed below.

A word on the stoichiometry N: it is a count of units in the complex or per binding partner.

This assay addresses CaCl2-washed photosystem II complex (T. elongatus | T. elongatus (endogenous)) (UniProt Q8DIF8). The assay is described as follows: native gel or EMSA. On the technique in general: Mobility shift assays separate free from complexed probe on a gel.

Substance “CaCl2-washed photosystem II complex (from UniProt Q8DIF8 1-461; P0A444 1-344; Q8DIQ1 1-510)” registered a stoichiometry N of 2.
